In patent publication US20040086966A1 (EUROSCREEN S A, published 2004):
No end group written: not given here.

T1: human ChemerinR (human, UniProt Q99788 3-373)
T1 sequence: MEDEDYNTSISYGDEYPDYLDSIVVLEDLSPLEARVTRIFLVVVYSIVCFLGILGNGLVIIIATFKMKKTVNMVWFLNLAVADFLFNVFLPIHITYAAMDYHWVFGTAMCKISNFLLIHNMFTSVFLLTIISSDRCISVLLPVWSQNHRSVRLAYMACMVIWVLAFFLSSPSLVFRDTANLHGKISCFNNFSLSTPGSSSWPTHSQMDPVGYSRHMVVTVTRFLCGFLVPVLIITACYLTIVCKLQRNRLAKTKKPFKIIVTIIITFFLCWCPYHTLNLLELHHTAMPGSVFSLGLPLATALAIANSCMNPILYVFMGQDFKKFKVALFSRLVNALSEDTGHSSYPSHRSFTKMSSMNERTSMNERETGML


Legend:
human ChemerinR [1] = target: T1, human ChemerinR; experiment: cell-based or functional assay
human ChemerinR [2] = target: T1, human ChemerinR; experiment: competition binding on ChemerinR-expressing CHO-K1 cells; tracer (competed ligand) 125I-…
Procedure: (§1) ChemerinR expressing CHO-K1 cells were collected from plates with PBS supplemented with 5 mM EDTA, gently pelleted for 2 min at 1000×g, and resuspended in binding buffer (50 mM HEPES, pH 7.4, 1 mM CaCl₂, 5 mM MgCl₂, 0.5% BSA). […] Filters were counted in a […]-scintillation counter. Binding parameters were determined with the PRISM software (Graphpad Software) using nonlinear regression applied to a one-site competition model.

human ChemerinR [3] = target: T1, human ChemerinR; experiment: competition binding on ChemerinR-expressing CHO-K1 cells, tracer 125I-…, one-site model, 3 experiments
Procedure: as §1

human ChemerinR [4] = target: T1, human ChemerinR; experiment: cell-based or functional assay; remark: listed apart in the source

Binder | Mean EC50, intracellular calcium release (aequorin assay) (human ChemerinR [1]) | also measured
QRAGEDPHSFYFPGQFAFSK [Human [Lys20]Chemerin-19] | 170000 nM | 
QRAGEDPHSFYFPGQFAFSKALPRS [Human prochemerin-25] | 160000 nM | 
QRAGEDPHSFYFPGQFAFS [Human Chemerin-19] | 16.7 nM | 
YFPGQFAAS [Human [Ala-8]Chemerin-9] | 38000 nM | 
YAPGQFAFS [Human [Ala-2]Chemerin-9] | 155 nM | 
AFPGQFAFS [Human [Ala-1]Chemerin-9] | 496 nM | 
YHSFFFPGQFAFS (also called unlabeled peptide; unlabel peptide) [YHSFFFPGQFAFS peptide (unlabeled)] |  | IC50 (read off the curve) (human ChemerinR [2]): ~20 nM; Ki (human ChemerinR [3]): 12.1 nM; pKi (human ChemerinR [3]): 7.95; EC50, aequorin-based assay (human ChemerinR [4]): 28 nM
human Prochemerin (recombinant, unprocessed) (ligand) ELTEAQRRGLQVALEEFHKHPPVQWAFQETSVESAVDTPFPAGIFVRLEFKLQQTSCRKRDWKKPECKVRPNGRKRKCLACIKLGSEDKVLGRLVHCPIETQVLREAEEHQETQCLRVQRAGEDPHSFYFPGQFAFSKALPRS |  | EC50, biological activity on CHO-K1 cells expressing human ChemerinR (aequorin assay) (human ChemerinR [4]): 393 nM
QRAGEDPHSFYFPGQFA [Human [delta-Phe18Ser19]Chemerin-19] | 220000 nM | 
FPGQFAFS [Human Chemerin-8] | 2000 nM | 
QRAGEDPHSFYFPGQF [Human [delta-Ala17Phe18Ser19]Chemerin-19] | 130000 nM | 
PGQFAFS [Human Chemerin-7] | 220000 nM | 
QRAGEDPHSFYFPGQFAF [Human [delta-Ser19]Chemerin-19] | 97 nM | 
PHSFYFPGQFAFS (not fully specified) [Human Chemerin-13] | 14 nM | 
YFPGQAAFS [Human [Ala-6]Chemerin-9] | 5000 nM | 
HSFYFPGQFAFS [Human Chemerin-12] | 12.2 nM | 
FYFPGQFAFS [Human Chemerin-10] | 8.2 nM | 
